Measurements taken from patent publication CN117069831A (SHENZHEN BGI LIFE SCIENCE RES INSTITUTE, dated 2023).
Positions count from the first letter of the chain named.

B1: R-30 (VHH)
VHH: QVQLQESGGGLVQSGGSLRLSCTASGGIIRLNSMGWYRQAPGKQREPVATIVSDVGTNYADSVKGRFTISRDNAKNTIYLQMNSLKFEDTAVYYCVADRAFVLRGEYEYWGQGTQVTVSS
notes: also called 第一株RBD纳米抗体R-30
B2: S1-24 (VHH)
VHH: B1 VHH with T23A, I28V, I29S, P41Q, P47L, S53N, K75A, I78V, Q81L, Y94N
notes: also called 第四株RBD纳米抗体S1-24
B3: S1-28 (VHH)
VHH: B1 VHH with S14P, L85P
notes: also called 第二株RBD纳米抗体S1-28
B4: S1-51 (VHH)
VHH: B1 VHH with T23A, I28V, I29S, P47L, V52I, K75A, I78V
notes: also called 第三株RBD纳米抗体S1-51

Key:
野生型SARS-CoV-2 S1抗原 = target: T1, 野生型SARS-CoV-2 S1抗原 (SARS-CoV-2, UniProt P0DTC2 16-685); assay: SPR, Biacore T200, antigen coupled to CM5 chip, nanobody as analyte
T1 construct: domain: S1; also called SARS-CoV-2S1野生型; S1抗原(义翘)

非典SARS-CoV-1 spike RBD = target: T2, 非典SARS-CoV-1 spike RBD (SARS-CoV-1, UniProt P59594 306-527); assay: ELISA on coated antigen, anti HA HRP
T2 construct: domain: RBD; also called 非典病毒RBD; 非典SARS-CoV-1RBD

Binder | Kd (野生型SARS-CoV-2 S1抗原) | EC50 (非典SARS-CoV-1 spike RBD)
B1 | ~0.1 nM | 14.7 nM
B2 | ~0.1 nM | 49.3 nM
B3 | ~0.1 nM | 11.4 nM
B4 | ~0.1 nM | 19.2 nM
